Test results: PMC4281351, “Heterogeneity of quaternary structure of glucosamine-6-phosphate deaminase from Giardia lamblia” (Parasitology Research, 2014)
Values joined by “and” are separate entries in the source; they are usually repeats but may differ in a detail not shown here. Equal entries are not always repeated.

B1: wild-type glucosamine-6-phosphate deaminase of Giardia lamblia (GlmNagB) (enzyme, UniProt O97439 1-266, looked up)
chain: MPSIHVSKCADPAIKLAHRIAEVVRSKPNCVLGLATGSTPIPVYQELARLHREEGLDFSQVRTFNLDEYAGLPPTHDQTYRFFMEEHLFSKVNIKPENVHFLNGMASDYEKECERYEQELKAIGPCDVWLLGIGHNGHIAFNEPGSPRDSRTRVVCLTQSTIDANARFFGNDKSKVPTKALSVGIATIMESREILLLATGESKREAVTKSVKGKCETHCPASFLHEHPHCRFYVDMDAGKVVDNTCCQATNQASCCGSTSCHAAKA
notes: glucosamine-6-phosphate deaminase of Giardia lamblia, GPI1 (GN6PI) gene cloned from strain MR4; primers run from the start ATG to the stop codon; calculated mass 29.4 kDa; No tag (pETTopo-GlmNagB); In solution a mixture of monomer, homodimer and homotetramer; also called wild-type GlmNagB; native GlmNagB; source: E. coli BL21(DE3) pLysS, purified (streptomycin sulfate, ammonium sulfate, PEG, ion …)
B2: G. lamblia GlcN6P deaminase with N-terminal His6 fusion (GlmNagB-HisN) (enzyme, Giardia lamblia, UniProt O97439 1-266, looked up)
chain: B1 chain
notes: glucosamine-6-phosphate deaminase of Giardia lamblia, GPI1 (GN6PI) gene cloned from strain MR4; NdeI/BamHI insert from the start ATG to the stop codon in pET15b; calculated mass 31.7 kDa with the tag; source: E. coli BL21(DE3) pLysS, purified (Ni2+-IDA agarose); not shown: His6, N-terminal, kept
B3: G. lamblia GlcN6P deaminase with C-terminal His6 fusion (GlmNagB-HisC) (enzyme, Giardia lamblia, UniProt O97439 1-266, looked up)
chain: B1 chain
notes: glucosamine-6-phosphate deaminase of Giardia lamblia, GPI1 (GN6PI) gene cloned from strain MR4; forward primer from the start ATG, reverse primer adds six His codons after the last codon and then the stop; calculated mass 30.2 kDa with the tag; pETTopo-GlmNagB-HisC; hexaHis stands directly at the C-terminus; source: E. coli BL21(DE3) pLysS, purified (Ni2+-IDA agarose); not shown: His6, …

Target: the molecule itself
Assay: SEC; Superdex 200HR 10/300 GL; 0.5 ml applied, 0.5 ml/min; 50 mM potassium phosphate pH 7.0, 0.15 M NaCl; masses from a plot of log molecular mass versus Kav; fresh preparations and preparations stored for several hours at 4 °C or of higher protein concentration

Protein | stoichiometry N
B1 | 4 and 2
B2 | 4 and 2
B3 | 4 and 2
